Data published in patent US20260176683A1 (RIJKSUNIVERSITEIT GRONINGEN, published 2026).

Assays:
[1] = target: His6-TEV-YaxB (full-length YaxB monomer) (Yersinia enterocolitica); test: 1:1 mixing of monomers, SEC, insertion into lipid bilayers
C-reactive protein = target: T1, C-reactive protein (UniProt P02741 19-224); test: single-nanopore electrophysiology, CRP added to cis
T1 construct: also called CRP
T1 sequence: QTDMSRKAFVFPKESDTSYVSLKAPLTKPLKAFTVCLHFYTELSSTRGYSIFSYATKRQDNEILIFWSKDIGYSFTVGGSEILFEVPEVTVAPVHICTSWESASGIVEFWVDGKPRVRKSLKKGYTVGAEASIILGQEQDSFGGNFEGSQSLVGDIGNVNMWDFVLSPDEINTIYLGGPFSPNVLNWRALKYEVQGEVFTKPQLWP

B1: His6-TEV-YaxA (full-length YaxA monomer) (other)
chain: MSYYHHHHHHDYDIPTTENLTRSSENLYFQSGGTQTQLAIDNVLASAESTIQLNELPKVVLDFITGEQTSVARSGGIFTKEDLINLKLYVRKGLSLPTRQDEVEAYLGYKKIDVAGLEPKDIKLLFDEIHNHALNWNDVEQAVLQQSLDLDIAAKNIISTGNEIINLINQMPITLRVKTLLGDITDKQLENITYESADHEVASALKDILDDMKGDINRHQTTTENVRKKVSDYRITLTGGELSSGDKVNGLEPQVKTKYDLMEKSNMRKSIKELDEKIKEKRQRIEQLKKDYDKFVGLSFTGAIGGIIAMAITGGIFGAKAENARKEKNALISEVAELESKVSSQRALQTALEALSLSFSDIGIRMVDAESALNHLDFMWLSVLNQITESQIQFAMINNALRLTSFVNKFQQVITPWQSVGDSARQLVDIFDEAIKEYKKVYG
- binding result [1]: binds

B2: YaxAΔ40BN-strepII-70aa-flex nanopore (other)
chain 1: […]
chain 2: MSYYHHHHHHDYDIPTTENLYFQGWSHPQFEKGSSGSTSNASAGTGSATGSNSTAGASSGNSAGTGTSSGSTGSANSSAGTGSGSATASAGNSGTSTAGNSTAEISTFPHSGLSYPDINFKIFSQGVKNISHLAQFKTTGVEVLQEKALRVSLYSQRLDVIVRESLSSLQVKLENTLALTYFTTLEEIDEALISQDIDEESKSEMRKERINIIKNLSNDITQLKQLFIEKTELLDKSSSDLHNVVIIEGTDKVLQAEQLRQKQLTEDIATKELERKEIEKKRDKIIEALDVIREHNLVDAFKDLIPTGENLSELDLAKPEIELLKQSLEITKKLLGQFSEGLKYIDLTDARKKLDNQIDTASTRLTELNRQLEQSEKLIAGVNAIIKIDQEKSAVVVEAEKLSRAWHIFIHEITALQGTSLNEVELSKPLIKQQIYLESLIKQLI
- binding result (C-reactive protein): no binding (tested: 20 nM CRP)
